Where a chain is given by its changes, count along the chain named. Names may count otherwise.
B1: PAD4 Ca1_site mutant (Q349A/E353A/E411A) (enzyme, human, UniProt Q9UM07 1-663, looked up)
chain: MAQGTLIRVTPEQPTHAVCVLGTLTQLDICSSAPEDCTSFSINASPGVVVDIAHGPPAKKKSTGSSTWPLDPGVEVTLTMKVASGSTGDQKVQISYYGPKTPPVKALLYLTGVEISLCADITRTGKVKPTRAVKDQRTWTWGPCGQGAILLVNCDRDNLESSAMDCEDDEVLDSEDLQDMSLMTLSTKTPKDFFTNHTLVLHVARSEMDKVRVFQATRGKLSSKCSVVLGPKWPSHYLMVPGGKHNMDFYVEALAFPDTDFPGLITLTISLLDTSNLELPEAVVFQDSVVFRVAPWIMTPNTQPPQEVYACSIFENEDFLKSVTTLAMKAKCKLTICPEEENMDDQWMADEMAIGYIQAPHKTLPVVFDSPRNRGLKEFPIKRVMGPDFGYVTRGPQTGGISGLDSFGNLAVSPPVTVRGKEYPLGRILFGDSCYPSNDSRQMHQALQDFLSAQQVQAPVKLYSDWLSVGHVDEFLSFVPAPDRKGFRLLLASPRSCYKLFQEQQNEGHGEALLFEGIKKKKQQKIKNILSNKTLREHNSFVERCIDWNRELLKRELGLAESDIIDIPQLFKLKEFSKAEAFFPNMVNMLVLGKHLGIPKPFGPVINGRCCLEEKVCSLLEPLGLQCTFINDFFTYHIRHGEVHCGTNVRRKPFSFKWWNMVP
notes: human peptidylarginine deiminase 4 (PAD4), cDNA cloned into pQE30; source: E. coli JM109, purified (Ni-NTA)
B2: PAD4 Ca4_site mutant (D155A/D157A/D179A/D388A) (enzyme, human, UniProt Q9UM07 1-663, looked up)
chain: B1 chain with D155A, D157A, D179A, A349Q, A353E, D388A, A411E
notes: as for B1
B3: PAD4 Ca3_site mutant (N153A/D155A/D157A/D165A/D176A/D179A) (enzyme, human, UniProt Q9UM07 1-663, looked up)
chain: B1 chain with N153A, D155A, D157A, D165A, D176A, D179A, A349Q, A353E, A411E
notes: as for B1
B4: human PAD4 Ca1_site mutant (Q349A/E353A/E411A) (enzyme, UniProt Q9UM07 1-663, looked up)
chain: B1 chain
notes: source: E. coli JM109, purified (Ni-NTA)
B5: human PAD4 Ca2_site mutant (E351A/D369A/N373A) (enzyme, UniProt Q9UM07 1-663, looked up)
chain: B1 chain with A349Q, E351A, A353E, D369A, N373A, A411E
notes: as for B4
B6: human PAD4 Ca4_site mutant (D155A/D157A/D179A/D388A) (enzyme, UniProt Q9UM07 1-663, looked up)
chain: B1 chain with D155A, D157A, D179A, A349Q, A353E, D388A, A411E
notes: as for B4
B7: PAD4 Ca2_site mutant (E351A/D369A/N373A) (enzyme, human, UniProt Q9UM07 1-663, looked up)
chain: B1 chain with A349Q, E351A, A353E, D369A, N373A, A411E
notes: as for B1
B8: human PAD4 Ca3_site mutant (N153A/D155A/D157A/D165A/D176A/D179A) (enzyme, UniProt Q9UM07 1-663, looked up)
chain: B1 chain with N153A, D155A, D157A, D165A, D176A, D179A, A349Q, A353E, A411E
notes: as for B4

Assays:
[1] = target: human PAD4 Ca5_site mutant (D168A/E252A) (human) (UniProt Q9UM07); test: AUC; sedimentation velocity, 20 °C, 42,000 rpm, absorbance at 280 nm, SEDFIT continuous size distribution; no urea, 10 mM Ca2+, 50 mM Tris-HCl pH 7.4; dimer to monomers
[2] = target: the molecule itself; test: AUC; sedimentation velocity at three protein concentrations (0.1, 0.3 and 0.9 mg/ml), globally fit with SEDPHAT; dimer to monomers
[3] = target: the molecule itself; test: AUC; sedimentation velocity, 20 °C, 42,000 rpm, absorbance at 280 nm, SEDFIT continuous size distribution; no urea, 10 mM Ca2+, 50 mM Tris-HCl pH 7.4; dimer to monomers

Molecule | Kd [2] | stoichiometry N [3] | also measured
human PAD4 Ca5_site mutant (D168A/E252A) (from UniProt Q9UM07 1-663) (enzyme) | – | – | stoichiometry N [1]: 2
B1 | 0.16 ± 0.001 µM | – | –
B2 | 0.41 ± 0.004 µM | – | –
B3 | 0.16 ± 0.001 µM | – | –
B4 | – | 2 | –
B5 | – | 2 | –
B6 | – | 2 | –
B7 | 0.15 ± 0.001 µM | – | –
B8 | – | 2 | –

From paper PMC5445078, “Probing the Roles of Calcium-Binding Sites during the Folding of Human Peptidylarginine Deiminase 4” (Scientific Reports, 2017)
